# In patent publication US20120329717A1:
# B1: ω-conotoxin CVIF (peptide)
# peptide: CKGKGASCRRTSYDCCTGSCRSGRC
# modifications: not checked
# Tests used:
# [1] = biological target: recombinant N-type (Cav2.2) VGCC α1B-b/α2δ1/β3 expressed in Xenopus oocytes (rat; rabbit) (UniProt Q02294); assay: cell-based or functional assay
# [2] = biological target: recombinant N-type (Cav2.2) VGCC α1B-b/α2δ1/β3 expressed in Xenopus oocytes (rat; rabbit), Q02294; assay: cell-based or functional assay
# Chain of recombinant N-type (Cav2.2) VGCC α1B-b/α2δ1/β3 expressed in Xenopus oocytes (rat; rabbit), Q02294 (P13806 27-1106, stated change not applied, chain 2 of 2): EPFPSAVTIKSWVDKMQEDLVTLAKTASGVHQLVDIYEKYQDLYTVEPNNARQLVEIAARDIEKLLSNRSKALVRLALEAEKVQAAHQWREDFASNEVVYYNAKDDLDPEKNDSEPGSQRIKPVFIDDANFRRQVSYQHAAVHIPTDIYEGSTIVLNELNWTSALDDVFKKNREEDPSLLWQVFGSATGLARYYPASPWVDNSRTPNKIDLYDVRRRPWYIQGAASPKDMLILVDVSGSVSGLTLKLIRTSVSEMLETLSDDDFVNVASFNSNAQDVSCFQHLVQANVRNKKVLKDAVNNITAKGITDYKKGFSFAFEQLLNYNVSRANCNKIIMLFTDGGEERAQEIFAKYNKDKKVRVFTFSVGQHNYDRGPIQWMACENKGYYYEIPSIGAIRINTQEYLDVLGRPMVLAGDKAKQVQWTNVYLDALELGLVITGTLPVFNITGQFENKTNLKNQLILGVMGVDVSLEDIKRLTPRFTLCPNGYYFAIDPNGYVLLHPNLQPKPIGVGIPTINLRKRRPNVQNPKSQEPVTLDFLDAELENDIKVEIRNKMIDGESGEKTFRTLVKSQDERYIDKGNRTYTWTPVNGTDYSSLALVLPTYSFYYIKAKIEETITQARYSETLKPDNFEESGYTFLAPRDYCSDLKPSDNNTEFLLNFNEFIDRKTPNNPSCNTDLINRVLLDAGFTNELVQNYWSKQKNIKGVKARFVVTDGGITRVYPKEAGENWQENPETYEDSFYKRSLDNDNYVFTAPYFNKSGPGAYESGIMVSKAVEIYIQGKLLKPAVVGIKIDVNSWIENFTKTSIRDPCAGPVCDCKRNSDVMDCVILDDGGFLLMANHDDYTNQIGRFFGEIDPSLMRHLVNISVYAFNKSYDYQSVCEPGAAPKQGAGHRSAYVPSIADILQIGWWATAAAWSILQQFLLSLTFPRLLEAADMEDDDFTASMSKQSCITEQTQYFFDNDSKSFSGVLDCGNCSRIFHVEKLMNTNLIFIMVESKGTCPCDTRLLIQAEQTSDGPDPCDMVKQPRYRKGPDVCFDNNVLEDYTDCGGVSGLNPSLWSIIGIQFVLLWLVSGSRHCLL
# Chain of recombinant N-type (Cav2.2) VGCC α1B-b/α2δ1/β3 expressed in Xenopus oocytes (rat; rabbit), Q02294 (P54287 whole entry, stated change not applied, chain 3 of 2, further chain): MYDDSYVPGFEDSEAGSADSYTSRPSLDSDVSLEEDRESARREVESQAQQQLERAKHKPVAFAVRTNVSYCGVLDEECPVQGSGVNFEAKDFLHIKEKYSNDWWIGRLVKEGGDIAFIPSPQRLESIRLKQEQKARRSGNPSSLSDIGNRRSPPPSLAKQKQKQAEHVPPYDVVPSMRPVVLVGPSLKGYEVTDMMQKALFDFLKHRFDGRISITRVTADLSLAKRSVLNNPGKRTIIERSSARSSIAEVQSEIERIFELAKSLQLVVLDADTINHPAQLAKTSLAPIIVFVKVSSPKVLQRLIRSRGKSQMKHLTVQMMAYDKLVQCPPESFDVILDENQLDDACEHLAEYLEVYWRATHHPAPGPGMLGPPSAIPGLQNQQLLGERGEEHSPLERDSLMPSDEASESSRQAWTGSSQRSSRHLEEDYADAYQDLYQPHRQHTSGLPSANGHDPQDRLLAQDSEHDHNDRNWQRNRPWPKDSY
# Chain of recombinant N-type (Cav2.2) VGCC α1B-b/α2δ1/β3 expressed in Xenopus oocytes (rat; rabbit) (P13806 27-1106, stated change not applied, chain 2 of 2): as the sequence (P13806 27-1106, stated change not applied, chain 2 of 2) above
# Chain of recombinant N-type (Cav2.2) VGCC α1B-b/α2δ1/β3 expressed in Xenopus oocytes (rat; rabbit) (P54287 whole entry, stated change not applied, chain 3 of 2, further chain): as the sequence (P54287 whole entry, stated change not applied, chain 3 of 2, further chain) above
molecule,measurement,setting,value
ω-conotoxin CVIB (from UniProt P58918 1-25) (peptide),"IC50 of inhibition of normalized peak IBa, Xenopus oocytes",[1],12 nM
ω-conotoxin CVIE (peptide),"IC50 of inhibition of normalized peak IBa, Xenopus oocytes",[1],2.6 nM
same,time constant of block (τon) at HP -80 mV,[1],31.5 s
same,time constant of block (τon) at HP -125 mV,[1],38.5 s
B1,"IC50 of inhibition of normalized peak IBa, Xenopus oocytes",[2],19.9 nM
